Experiment [1] addresses human IGF-1R(1-903)-Fc (human) (UniProt P08069). In words: ELISA on hIGF-1R-Fc, competitor Zenon-labelled αIR3.
Experiment [2] shares this target. In words: ELISA on hIGF-1R-Fc, competitor biotinylated M14-G11.
Experiment [3] has as its target human IGF-1R(1-902)-His10 (human) (UniProt P08069). In words: ELISA, plate coated with rh-IGF-1R, bound antibody detected with anti-mouse IgG Fc-HRP.
The target of experiment [4] is human IGF-1R(1-903)-Fc (human) (UniProt P08069). In words: competition ELISA: biotinylated hIGF-1R-Fc on streptavidin plate, 320 nM human IGF-1 His, detection with anti-His-HRP; blocked ligand human IGF-1 His.

On to αIR3 (antibody), for which the percent competition (relative to self-competition) in experiment [1] and in experiment [2] was 90 to 100% throughout. Further, in experiment [3], the concentration giving a half-maximal response (EC50 (read off the curve)) stood at 0.2 nM. The substance further came in with an IC50 (read off the curve) in experiment [4] of 5 nM.

The values are drawn from patent US20090291088A1, “THERAPEUTIC COMBINATIONS OF ANTI-IGF-1R ANTIBODIES AND OTHER COMPOUNDS” (Biogen Idec MA Inc., priority 2008, published 2009).
